Patent US20250059274A1, “ANTI-FRa ANTIBODY, AND ANTIBODY-DRUG CONJUGATE AND USE THEREOF” (Bio-Thera Solutions, Ltd., priority 2021, published 2025)
Read-outs that look alike come from different tables or passages of the source.

Legend:
[1] = Exatecan in plasma, 0.25 mg/kg iv infusion 30 min
Protocol: 24 common cynomolgus monkeys aged 3-5 years (half male and half female) were adopted and randomly divided into 4 groups, and each group consisted of 3 female animals and 3 male animals. […] Blood samples were collected until 504 hours after the end of the administration. The major pharmacokinetic parameters, i.e., AUC(0-t), AUC(0-∞), T1/2, Cmax, Tmax, CL, MRT, etc., were calculated from the plasma concentration data with a non-compartmental model using Phoenix WinNonlin® 7.0 software.

[2] = biological target: Rat FOLR1 (Rattus norvegicus, UniProt Q9JL02); experiment: ELISA species specificity of antibodies; type: binding; settings: coated antigen rat FOLR1
Protocol: (§1) Each antigen was diluted to 1 μg/mL with PBS and added to a microplate (manufacturer: Corning, Catalog No.: 42592) in a volume of 100 μL per well, and the microplate was coated overnight in a refrigerator (2-8° C.). The coating solution was discarded, and 200 μL of a blocking solution (containing 5% skimmed milk powder, prepared from PBS) was added. The microplate was left to stand in an electric thermostatic incubator at 37° C. for 2 h. The blocking solution was discarded, and the microplate was washed 3 times with 0.05% PBST. Antibody dilutions at different concentrations (at an initial concentration of 6 μg/mL, 3-fold dilution, 8 concentration gradients in total, diluted with PBS) were added at 100 μL per well. The microplate was left to stand in the electric thermostatic incubator at 37° C. for 2 h. The antibody dilutions were discarded, and the microplate was washed 8 times with 0.05% PBST and patted dry. Anti-Human Kappa Light Chains (Bound and Free) peroxidase antibody Produced in goat (manufacturer: sigma, Catalog No.: A7164-1ML) diluted in a 1:10000 ratio was added at 100 µL/well. The microplate was left to stand in the electric thermostatic incubator at 37° C. for 1 h. […] The microplate was read on SpectraMax Plus Absorbance Microplate Reader with an absorption light wavelength of 450 nm.

[3] = biological target: Mouse FOLR1 (Mus musculus, UniProt P35846); experiment: ELISA species specificity of antibodies; type: binding; settings: coated antigen mouse FOLR1
Protocol: as §1

[4] = biological target: T1, folate receptor α (FRα) on FRα-positive cells (JEG-3, MCF-7) (UniProt P15328 25-234, limits assumed); experiment: flow cytometry on JEG-3 cells
T1 construct: whole, on cells; also called JEG-3 cells; JEG3 cells

[5] = biological target: T2, antigen FRα-His (human FRα extracellular domain with C-terminal 8×HIS tag) (human, UniProt P15328 25-233); experiment: SPR (Biacore T200), antibody captured on Protein A chip, antigen as analyte, 1:1 model; Table 7 experiment (antigen specificity, FOLR1/FOLR2/FOLR3)
T2 construct: The entry still carries the N-terminal signal peptide; Expressed in CHO-K1 cells; also called FOLR1
Protocol: (§2) A Protein A chip was used for the assay.
(§3) Experiment results were analyzed using data analysis software Evaluation Software 3.1. The sensing signals acquired from the experimental flow channels for the samples were subjected to double subtraction (minus values of reference flow channels and blank control), and the fitting was performed using a “1:1” kinetic model to obtain the kinetic parameters (Ka: association rate; Kd: dissociation rate; KD: equilibrium dissociation constant) for the binding of each sample to the antigens.

[6] = biological target: T3, FOLR2 (purchased from Acro, Catalog No. FO2-H5223) (UniProt P14207 17-228); experiment: SPR (Biacore T200), antibody captured on Protein A chip, antigen as analyte
T3 construct: Bought reagent; also called folate receptor β
Protocol: as §2, §3

[7] = biological target: T4, FOLR3 (purchased from R&D, Catalog No. 5319-FR-050) (UniProt P41439 23-245, limits assumed); experiment: as above
T4 construct: Bought reagent; also called folate receptor γ
Protocol: as §2, §3

[8] = biological target: T5, Rat FOLR1 (manufacturer: sino Biological, Catalog No.: 81073-R08NO0507) (rat, UniProt G3V8M6 25-232); experiment: ELISA, antigen coated at 1 µg/mL
T5 construct: Bought reagent
Protocol: (§4) Each antigen was diluted to 1 μg/mL with PBS and added to a microplate (manufacturer: Corning, Catalog No.: 42592) in a volume of 100 μL per well, and the microplate was coated overnight in a refrigerator (2-8° C.). The coating solution was discarded, and 200 μL of a blocking solution (containing 5% skimmed milk powder, prepared from PBS) was added. The microplate was left to stand in an electric thermostatic incubator at 37° C. for 2 h. The blocking solution was discarded, and the microplate was washed 3 times with 0.05% PBST. Antibody dilutions at different concentrations (at an initial concentration of 6 μg/mL, 3-fold dilution, 8 concentration gradients in total, diluted with PBS) were added at 100 μL per well. The microplate was left to stand in the electric thermostatic incubator at 37° C. for 2 h. The antibody dilutions were discarded, and the microplate was washed 8 times with 0.05% PBST and patted dry. Anti-Human Kappa Light Chains (Bound and Free) peroxidase antibody Produced in goat (manufacturer: sigma, Catalog No.: A7164-1ML) diluted in a 1:10000 ratio was added at 100 µL/well. The microplate was left to stand in the electric thermostatic incubator at 37° C. for 1 h. The antibody dilutions were discarded, and the microplate was washed 8 times with 0.05% PBST and patted dry. Single-component TMB substrate solution I (manufacturer: Huzhou InnoReagents Co., Ltd.; Catalog No.: TMB-S-001) was added at 100 μL/well, and the microplate was left to stand in the electric thermostatic incubator at 37° C. for 10 min in the dark. 0.1 M H₂SO₄ was added at 100 μL/well to terminate the reaction.

[9] = biological target: T6, Mouse FOLR1 (manufacturer: Acro, Catalog No.: F01-M5225) (mouse, UniProt P35846 25-232); experiment: ELISA, antigen coated at 1 µg/mL
T6 construct: Bought reagent
Protocol: as §4

[10] = biological target: T7, Cynomolgus monkey FOLR1 (manufacturer: Acro, Catalog No.: F01-C52H8) (cynomolgus monkey, UniProt A0A2K5U044 25-233); experiment: ELISA, antigen coated at 1 µg/mL, antibody titrated
T7 construct: Bought reagent
Protocol: as §4

[11] = biological target: T2, antigen FRα-His (human FRα …); experiment: as above
Protocol: as §4

[12] = biological target: T2, antigen FRα-His (human FRα …); experiment: SPR (Biacore T200), drug captured on Protein A chip, FRα-His as analyte, 1:1 model
Protocol: as §2, §3

[13] = biological target: T2, antigen FRα-His (human FRα …); experiment: SPR (Biacore T200), antibody captured on Protein A chip, antigen as analyte, 1:1 model
Protocol: as §2, §3

T2 sequence (P15328 other isoform, or with tags, fused parts or gaps limits assumed): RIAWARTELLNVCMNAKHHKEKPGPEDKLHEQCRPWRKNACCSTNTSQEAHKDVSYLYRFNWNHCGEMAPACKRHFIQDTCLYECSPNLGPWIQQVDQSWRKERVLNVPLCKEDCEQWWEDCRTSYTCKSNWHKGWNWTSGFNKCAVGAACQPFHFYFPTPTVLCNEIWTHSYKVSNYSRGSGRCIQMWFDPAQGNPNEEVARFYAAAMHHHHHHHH
T5 sequence (G3V8M6 entry or part of it limits assumed): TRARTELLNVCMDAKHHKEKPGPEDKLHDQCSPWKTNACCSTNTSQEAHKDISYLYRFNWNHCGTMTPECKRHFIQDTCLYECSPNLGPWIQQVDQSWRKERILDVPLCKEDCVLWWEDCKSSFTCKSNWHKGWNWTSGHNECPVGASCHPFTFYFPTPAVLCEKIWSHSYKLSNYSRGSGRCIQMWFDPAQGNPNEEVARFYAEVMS
T3 sequence (P14207 17-228 limits assumed): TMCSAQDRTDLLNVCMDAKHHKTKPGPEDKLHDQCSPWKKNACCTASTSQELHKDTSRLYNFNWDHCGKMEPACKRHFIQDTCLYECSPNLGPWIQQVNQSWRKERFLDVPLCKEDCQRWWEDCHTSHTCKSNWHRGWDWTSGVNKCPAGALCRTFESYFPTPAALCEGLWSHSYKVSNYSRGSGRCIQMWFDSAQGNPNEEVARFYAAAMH
T4 sequence (P41439 23-245 limits assumed): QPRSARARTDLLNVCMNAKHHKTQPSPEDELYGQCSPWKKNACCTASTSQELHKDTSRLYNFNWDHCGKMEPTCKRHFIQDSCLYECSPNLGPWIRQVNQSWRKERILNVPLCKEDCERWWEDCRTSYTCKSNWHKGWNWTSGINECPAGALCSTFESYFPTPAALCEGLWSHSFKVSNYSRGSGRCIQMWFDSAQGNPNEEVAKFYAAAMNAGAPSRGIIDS
T7 sequence (A0A2K5U044 entry or part of it): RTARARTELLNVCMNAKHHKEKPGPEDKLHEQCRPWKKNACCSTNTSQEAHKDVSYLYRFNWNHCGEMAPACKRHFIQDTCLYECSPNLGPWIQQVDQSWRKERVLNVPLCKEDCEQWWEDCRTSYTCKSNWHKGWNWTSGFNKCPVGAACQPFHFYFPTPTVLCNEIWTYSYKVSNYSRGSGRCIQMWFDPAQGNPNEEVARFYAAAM
T6 sequence (P35846 25-232 limits assumed): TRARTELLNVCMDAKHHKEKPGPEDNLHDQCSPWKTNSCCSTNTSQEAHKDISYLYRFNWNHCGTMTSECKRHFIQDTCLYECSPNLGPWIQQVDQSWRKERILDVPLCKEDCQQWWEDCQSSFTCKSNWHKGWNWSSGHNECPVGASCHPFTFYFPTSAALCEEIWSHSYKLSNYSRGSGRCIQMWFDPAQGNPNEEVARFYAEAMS
T1 sequence (P15328 25-234 limits assumed): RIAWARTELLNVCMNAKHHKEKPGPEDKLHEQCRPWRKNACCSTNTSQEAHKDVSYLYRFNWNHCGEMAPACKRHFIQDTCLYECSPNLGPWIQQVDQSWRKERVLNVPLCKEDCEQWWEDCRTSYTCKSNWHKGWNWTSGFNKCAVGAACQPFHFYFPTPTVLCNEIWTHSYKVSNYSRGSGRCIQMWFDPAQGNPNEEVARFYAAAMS
Chain of Rat FOLR1 (Q9JL02 20-255): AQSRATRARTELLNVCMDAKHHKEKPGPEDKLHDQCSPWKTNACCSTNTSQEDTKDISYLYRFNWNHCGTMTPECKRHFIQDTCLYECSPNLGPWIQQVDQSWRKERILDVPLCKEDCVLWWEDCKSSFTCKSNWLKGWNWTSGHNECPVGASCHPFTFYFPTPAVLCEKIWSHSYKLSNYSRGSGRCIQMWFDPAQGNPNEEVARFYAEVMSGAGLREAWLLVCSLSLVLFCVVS
Chain of Mouse FOLR1 (P35846 25-232): as the sequence (P35846 25-232 limits assumed) above

## (1S,9S)-1-amino-9-ethyl-5-fluoro-9-hydroxy-4-methyl-1,2,3,9,12,15-hexahydro-10H,13H-benzo[3′,4′:6,7]indoline[1,2-b]quinoline-10,13-dione methanesulfonate [Exatecan Mesylate]
[1]; female
  AUC(0-t): 155.05 ng·h/mL
  Cmax: 237.567 ng/mL
  Tmax: 30 min
[1]; male
  AUC(0-t): 231.77 ng·h/mL
  Cmax: 349.808 ng/mL
  Tmax: 30 min

## huMOV19: control antibody huMOV19, heavy chain SEQ ID NO: 34, light chain SEQ ID NO: 35
[2]
  EC50: — (“—” indicates no binding)
[3]
  EC50: — (“—” indicates no binding)

B1: Antibody 1 (humanized anti-FRα antibody) (antibody, human IgG1, kappa, V domains shown)
VH: QVQLVQSGVEVKKPGASVKVSCKASGYSFTGYFMNWVRQAPGQGLEWIGRIHPYDGDTFYNQNFKDKATLTVDKSTTTAYMELKSLQFDDTAVYYCTRYDGSRAMDYWGQGTTVTVSS
VL: EIVLTQSPATLSLSPGERATLSCKASQSVSFAGTSLMHWYQQKPGQAPRLLIYRASNLEAGVPARFSGSGSKTDFTLTISSLEPEDFAVYYCQQSREYPYTFGGGTKVEIKR
notes: also called anti-FRα antibody No. 1
[4]
  EC50: 1400 pM
[5]
  Kd: 703 pM
[6]
  binding result: no binding (tested: antigen up to 100 nM)
[7]
  binding result: no binding (tested: antigen up to 100 nM)
[8]
  binding result: no binding (tested: antibody up to 6 µg/mL)
[9]
  binding result: no binding (tested: antibody up to 6 µg/mL)
[10]
  EC50: 0.066 µg/mL
[11]
  EC50: 0.069 µg/mL
[12]
  Kd: 287 pM
  koff: 0.000293 s⁻¹
  kon: 1.02e+06 M⁻¹ s⁻¹

B2: control antibody huMOV19 (antibody, human IgG1, kappa, V domains shown)
VH: QVQLVQSGAEVVKPGASVKISCKASGYTFTGYFMNWVKQSPGQSLEWIGRIHPYDGDTFYNQKFQGKATLTVDKSSNTAHMELLSLTSEDFAVYYCTRYDGSRAMDYWGQGTTVTVSS
VL: DIVLTQSPLSLAVSLGQPAIISCKASQSVSFAGTSLMHWYHQKPGQQPRLLIYRASNLEAGVPDRFSGSGSKTDFTLTISPVEAEDAATYYCQQSREYPYTFGGGTKLEIKR
[13]
  Kd: 468 pM
[6]
  binding result: no binding (tested: antigen up to 100 nM)
[7]
  binding result: no binding (tested: antigen up to 100 nM)
[8]
  binding result: no binding (tested: antibody up to 6 µg/mL)
[9]
  binding result: no binding (tested: antibody up to 6 µg/mL)
[10]
  EC50: 0.087 µg/mL
[11]
  EC50: 0.09 µg/mL
